T1: NANP 5-mer peptide (NANP5) (Plasmodium falciparum)
T1 peptide: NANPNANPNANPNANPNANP

B1: 1210 Fab (Fab, V domains shown)
VH: QVQLVESGGGVVQPGRSLRLSCAASGFTFSNYGMHWVRQAPGKGLEWVAVIWYDGSKKYYADSVKGRFTISRDNSKNTLYLQMNSLRAEDTAVYYCARVRDSSDYYGDAFDIWGQGTMVTVSS
VL: DIQMTQSPSTLSASVGDRVTITCRASQSISSWLAWYQQKPGKAPKLLIYKASNLESGVPLRFSGSGSGTEFTLTISSLQPDDFATYYCQQYNNYWTFGQGTKVEIK
B2: 1210_H.K56_Nrev_K.N93_Srev (1210_NS) Fab (Fab, V domains shown)
VH: QVQLVESGGGVVQPGRSLRLSCAASGFTFSNYGMHWVRQAPGKGLEWVAVIWYDGSNKYYADSVKGRFTISRDNSKNTLYLQMNSLRAEDTAVYYCARVRDSSDYYGDAFDIWGQGTMVTVSS
VL: DIQMTQSPSTLSASVGDRVTITCRASQSISSWLAWYQQKPGKAPKLLIYKASNLESGVPLRFSGSGSGTEFTLTISSLQPDDFATYYCQQYNSYWTFGQGTKVEIK
B3: 1210_GL Fab (Fab, V domains shown)
VH: QVQLVESGGGVVQPGRSLRLSCAASGFTFSSYGMHWVRQAPGKGLEWVAVIWYDGSNKYYADSVKGRFTISRDNSKNTLYLQMNSLRAEDTAVYYCARVRDSSDYYGDAFDIWGQGTMVTVSS
VL: not shown
B4: 1210 H.D100Ymut_K.N92Ymut (1210_YY) Fab (Fab, V domains shown)
VH: QVQLVESGGGVVQPGRSLRLSCAASGFTFSNYGMHWVRQAPGKGLEWVAVIWYDGSKKYYADSVKGRFTISRDNSKNTLYLQMNSLRAEDTAVYYCARVRDSSYYYGDAFDIWGQGTMVTVSS
VL: DIQMTQSPSTLSASVGDRVTITCRASQSISSWLAWYQQKPGKAPKLLIYKASNLESGVPLRFSGSGSGTEFTLTISSLQPDDFATYYCQQYYNYWTFGQGTKVEIK

Biological target: T1, NANP 5-mer peptide (NANP5)
Experiment: ITC
Procedure: Calorimetric titration experiments were performed with an Auto-iTC200 instrument (Malvern) at 25° C. Proteins were dialyzed against 20 mM Tris pH 8.0 and 150 mM sodium chloride overnight at 4° C. […] Experiments were performed at least three times and the mean and standard error of the mean were reported (FIG. 30). The experimental data were analyzed according to a 1:1 binding model by means of Origin 7.0.
In the case of B1, the binding stoichiometry is reported as ~2. Work on B2 yielded a binding stoichiometry of ~2. For B3, the binding stoichiometry was ~2. B4 gave a binding stoichiometry of ~2.

From patent publication US12214052 (HOSPITAL FOR SICK CHILDREN, dated 2025)
